In the RNAGym collection of RNA variant scans (doi:10.1093/molbev/msab373):

B1: Azoarcus group I ribozyme (parent)
chain: GUGCCUUGCGCCGGGAAACCACGCAAGGGAUGGUGUCAAAUUCGGCGAAACCUAAGCGCCCGCCCGGGCGUAUGGCAACGCCGAGCCAAGCUUCGGCGCCUGCGCCGAUGAAGGUGUAGAGACUAGACGGCACCCACCUAAGGCAAACGCUAUGGUGAAGGCAUAGUCCAGGGAGUGGCGAAAGUCACACAAACCGG

Variants of: B1
Assay: reverse-splicing fitness (ratio to wild type); higher = more active; in vitro selection; Mg2+ level not given
How it was run: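 An in vitro group I ribozyme library with randomized positions was T7-transcribed and gel-purified. In triplicate, 10 pmol RNA in EPPS pH 7.5 was reacted with 50 pmoles of a 30-nt RNA substrate for 1 h at 37 °C across several added MgCl2 levels (1–48 mM), then stopped with EDTA. Products were reverse transcribed from a substrate-complementary primer, PCR-amplified and sequenced (HiSeq 4000). Fitness is a variant's read proportion after selection over that before, normalised to wild type.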

Point of comparison: C82G A111G A120C A145C C169A, reverse-splicing fitness 0.00695. Against it:
- C82G A111C C150A — higher, 0.0254
- C82G A111G A120C A145C C169A U176C — higher, 0.0106
- C82G A111G A120C A145C C169A U176A — higher, 0.0154
- C82G A111G A120C A145C C169A U176G — lower, 0.00459
- C82G A111G A120C A145G C150G U176C — higher, 0.011
- C82G A111G A120C A145G C150G U176G — lower, 0.0057
- C82G A111G A120C A145G C150G U176A — higher, 0.00724
- C82G A111C A145G U176G — higher, 0.0463
- C82G A111C A145G U176C — higher, 0.147
- C82G A111C A145G U176A — higher, 0.129
- C82G A111C U176G — higher, 0.0517
- C82G A111C U176C — higher, 0.139
- C82G A111C U176A — higher, 0.133
- C82G A111C A145U C150U C169G U176G — higher, 0.00868
- C82G A111C A145U C150U C169G U176A — higher, 0.0124
- C82G A111C A145U C150U C169G U176C — higher, 0.0196
- C82G A111G A120C A145G C150U U176C — higher, 0.0344
- C82G A111G A120C A145G C150U U176G — higher, 0.0117
- C82G A111G A120C A145G C150U U176A — higher, 0.0189
- C82G A111G A120C A145U C150A C169G U176G — lower, 0.00622
- C82G A111G A120C A145U C150A C169G U176A — higher, 0.0168
- C82G A111G A120C A145U C150A C169G U176C — higher, 0.0209
- C82G A111G A120C A145U C150A C169A U176C — higher, 0.0161
- C82G A111G A120C A145U C150A C169A U176G — lower, 0.0061
- C82G A111G A120C A145U C150A C169A U176A — higher, 0.0183
- C82G A111G A120C A145C C169U — higher, 0.0144
- C82G A111G A120C A145C C169G — higher, 0.00871
- C82G A111G A120C A145C C150U C169U U176A — higher, 0.013
- C82G A111G A120C A145C C150U C169U U176G — lower, 0.00553
- C82G A111G A120C A145C C150U C169U U176C — higher, 0.0121
- C82G A111C A145U C150G C169G U176G — higher, 0.00802
- C82G A111C A145U C150G C169G U176C — higher, 0.00714
- C82G A111C A145U C150G C169G U176A — higher, 0.00806
- C82G A111C A145U C150A C169A U176G — higher, 0.00941
- C82G A111C A145U C150A C169A U176C — higher, 0.0134
- C82G A111C A145U C150A C169A U176A — higher, 0.0135
- C82G A111C C150G C169G U176A — higher, 0.00734
- C82G A111C C150G C169G U176C — lower, 0.00598
- C82G A111C C150G C169G U176G — lower, 0.00603
- C82G A111G A120C A145G U176C — higher, 0.0418
- C82G A111G A120C A145G U176A — higher, 0.0236
- C82G A111G A120C A145G U176G — higher, 0.00851
- C82G A111C C150U C169G U176C — higher, 0.0174
- C82G A111C C150U C169G U176A — higher, 0.0133
- C82G A111C C150U C169G U176G — higher, 0.00784
- C82G A111G A120C A145C C150U C169A U176C — higher, 0.00829
- C82G A111G A120C A145C C150U C169A U176A — higher, 0.012
- C82G A111G A120C A145C C150U C169A U176G — lower, 0.00589
- C82G A111G A120C A145G C169G U176G — lower, 0.00476
- C82G A111G A120C A145G C169G U176A — higher, 0.0158
- C82G A111G A120C A145G C169G U176C — higher, 0.0188
- C82G A111C A145G C150A C169U U176G — higher, 0.00863
- C82G A111C A145G C150A C169U U176C — higher, 0.0161
- C82G A111C A145G C150A C169U U176A — higher, 0.0153
- C82G A111C C150A C169G — higher, 0.00787
- C82G A111C C150A C169U — higher, 0.0119
- C82G A111C C150A C169A — higher, 0.011
- C82G A111C C169G U176A — higher, 0.0182
- C82G A111C C169G U176C — higher, 0.0255
- C82G A111C C169G U176G — higher, 0.00724
- C82G A111G A120C A145G C150A C169A U176A — higher, 0.0208
- C82G A111G A120C A145G C150A C169A U176C — higher, 0.0227
- C82G A111G A120C A145G C150A C169A U176G — higher, 0.00804
- C82G A111C A145U C169G U176A — higher, 0.014
- C82G A111C A145U C169G U176G — higher, 0.00766
- C82G A111C A145U C169G U176C — higher, 0.0169
- C82G A111C A145U U176G — higher, 0.0645
- C82G A111C A145U U176A — higher, 0.138
- C82G A111C A145U U176C — higher, 0.136
- C82G A111C A145U C150U C169A U176G — higher, 0.00772
- C82G A111C A145U C150U C169A U176A — higher, 0.0121
- C82G A111C A145U C150U C169A U176C — higher, 0.0132
- C82G A111G A120C A145C C169U U176A — higher, 0.0142
- C82G A111G A120C A145C C169U U176G — lower, 0.00475
- C82G A111G A120C A145C C169U U176C — higher, 0.01
- C82G A111G A120C A145C C150A C169G U176G — lower, 0.00633
- C82G A111G A120C A145C C150A C169G U176A — higher, 0.026
- C82G A111G A120C A145C C150A C169G U176C — higher, 0.0173
- C82G A111G A120C — higher, 0.0886
- C82G A111C A145G C150G U176C — higher, 0.0214
- C82G A111C A145G C150G U176A — higher, 0.0138
- C82G A111C A145G C150G U176G — higher, 0.00754
